Positions count from the first letter of the chain named. Numbers in names are those of the source.

This is an account of results in article doi:10.1101/2024.11.03.621741 (bioRxiv, 2024).

B1: GST-FIGNL1-dNLS (domain or fragment)
chain: AGKKFKDSLLEPALASVVIHKEATVFDLPKFSVCGSSQESDSLPNSAHDRDRTQDFPESNRLKLLQNAQPPMVTNTARTCPTFSAPVGESATAKFHVTPLFGNVKKENHSSAKENIGLNVFLSNQSCFPAACENPQRKSFYGSGTIDALSNPILNKACSKTEDNGPKEDSSLPTFKTAKEQLWVDQQKKYHQPQRASGSSYGGVKKSLGASRSRGILGKFVPPIPKQDGGEQNGGMQCKPYGAGPTEPAHPVDERLKNLEPKMIELIMNEIMDHGPPVNWEDIAGVEFAKATIKEIVVWPMLRPDIFTGLRGPPKGILLFGPPGTGKTLIGKCIASQSGATFFSISASSLTSKWVGEGEKMVRALFAVARCQQPAVIFIDEIDSLLSQRGDGEHESSRRIKTEFLVQLDGATTSSEDRILVVGATNRPQEIDEAARRRLVKRLYIPLPEASARKQIVINLMSKEQCCLSEEEIEQIVQQSDAFSGADMTQLCREASLGPIRSLQTADIATITPDQVRPIAYIDFENAFRTVRPSVSPKDLELYENWNKTFGCGK
B2: RAD51 (wild type, recombinant) (natural protein)
chain: MAMQMQLEANADTSVEEESFGPQPISRLEQCGINANDVKKLEEAGFHTVEAVAYAPKKELINIKGISEAKADKILAEAAKLVPMGFTTATEFHQRRSEIIQITTGSKELDKLLQGGIETGSITEMFGEFRTGKTQICHTLAVTCQLPIDRGGGEGKAMYIDTEGTFRPERLLAVAERYGLSGSDVLDNVAYARAFNTDHQTQLLYQASAMMVESRYALLIVDSATALYRTDYSGRGELSARQMHLARFLRMLLRLADEFGVAVVITNQVVAQVDGAAMFAADPKKPIGGNIIAHASTTRLYLRKGRGETRICKIYDSPCLPEAEAMFAINADGVGDAKD
B3: RAD51-K133R (natural protein)
chain: B2 chain with K133R

The target in test [1] is MMS22L-TONSL complex (recombinant, purified) (human, UniProt Q6ZRQ5;Q96HA7). Put plainly: pull-down.
The test “GST-FIGNL1-dNLS” has as its target B1. Put plainly: pull-down.

Chain of MMS22L-TONSL complex (recombinant, purified) (Q6ZRQ5 whole entry, chain 1 of 2): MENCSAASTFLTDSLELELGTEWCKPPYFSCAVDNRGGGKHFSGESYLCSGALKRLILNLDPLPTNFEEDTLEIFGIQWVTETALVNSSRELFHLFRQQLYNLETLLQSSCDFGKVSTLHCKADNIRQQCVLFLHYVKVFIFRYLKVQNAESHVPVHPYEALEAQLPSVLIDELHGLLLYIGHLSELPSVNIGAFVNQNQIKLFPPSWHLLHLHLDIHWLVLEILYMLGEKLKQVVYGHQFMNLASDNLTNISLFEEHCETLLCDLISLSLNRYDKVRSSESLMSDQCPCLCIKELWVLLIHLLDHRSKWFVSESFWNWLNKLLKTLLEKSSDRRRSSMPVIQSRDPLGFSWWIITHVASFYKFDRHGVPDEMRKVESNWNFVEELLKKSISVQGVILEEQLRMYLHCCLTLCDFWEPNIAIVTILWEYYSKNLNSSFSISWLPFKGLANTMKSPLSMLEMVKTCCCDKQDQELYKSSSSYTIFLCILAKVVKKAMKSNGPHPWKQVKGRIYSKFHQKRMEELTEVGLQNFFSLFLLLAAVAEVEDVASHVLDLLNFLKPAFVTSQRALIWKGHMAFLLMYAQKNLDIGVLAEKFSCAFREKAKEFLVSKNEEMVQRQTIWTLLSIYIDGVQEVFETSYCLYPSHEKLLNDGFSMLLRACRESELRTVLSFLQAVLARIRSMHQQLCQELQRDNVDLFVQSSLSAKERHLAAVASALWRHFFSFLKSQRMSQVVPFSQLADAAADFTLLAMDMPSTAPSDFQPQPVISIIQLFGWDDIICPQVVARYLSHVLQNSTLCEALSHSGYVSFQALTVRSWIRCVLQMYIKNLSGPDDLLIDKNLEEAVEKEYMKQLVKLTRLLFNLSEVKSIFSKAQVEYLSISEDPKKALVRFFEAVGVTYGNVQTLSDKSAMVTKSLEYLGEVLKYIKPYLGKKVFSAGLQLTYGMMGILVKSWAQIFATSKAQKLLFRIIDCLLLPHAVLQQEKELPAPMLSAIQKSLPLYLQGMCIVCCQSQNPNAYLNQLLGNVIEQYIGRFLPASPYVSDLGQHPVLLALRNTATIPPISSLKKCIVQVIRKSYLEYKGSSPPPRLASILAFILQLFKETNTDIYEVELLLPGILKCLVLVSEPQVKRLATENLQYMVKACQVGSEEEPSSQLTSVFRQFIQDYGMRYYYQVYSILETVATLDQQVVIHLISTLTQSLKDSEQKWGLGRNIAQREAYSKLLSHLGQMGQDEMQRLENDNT
Chain of MMS22L-TONSL complex (recombinant, purified) (Q96HA7 whole entry, chain 2 of 2): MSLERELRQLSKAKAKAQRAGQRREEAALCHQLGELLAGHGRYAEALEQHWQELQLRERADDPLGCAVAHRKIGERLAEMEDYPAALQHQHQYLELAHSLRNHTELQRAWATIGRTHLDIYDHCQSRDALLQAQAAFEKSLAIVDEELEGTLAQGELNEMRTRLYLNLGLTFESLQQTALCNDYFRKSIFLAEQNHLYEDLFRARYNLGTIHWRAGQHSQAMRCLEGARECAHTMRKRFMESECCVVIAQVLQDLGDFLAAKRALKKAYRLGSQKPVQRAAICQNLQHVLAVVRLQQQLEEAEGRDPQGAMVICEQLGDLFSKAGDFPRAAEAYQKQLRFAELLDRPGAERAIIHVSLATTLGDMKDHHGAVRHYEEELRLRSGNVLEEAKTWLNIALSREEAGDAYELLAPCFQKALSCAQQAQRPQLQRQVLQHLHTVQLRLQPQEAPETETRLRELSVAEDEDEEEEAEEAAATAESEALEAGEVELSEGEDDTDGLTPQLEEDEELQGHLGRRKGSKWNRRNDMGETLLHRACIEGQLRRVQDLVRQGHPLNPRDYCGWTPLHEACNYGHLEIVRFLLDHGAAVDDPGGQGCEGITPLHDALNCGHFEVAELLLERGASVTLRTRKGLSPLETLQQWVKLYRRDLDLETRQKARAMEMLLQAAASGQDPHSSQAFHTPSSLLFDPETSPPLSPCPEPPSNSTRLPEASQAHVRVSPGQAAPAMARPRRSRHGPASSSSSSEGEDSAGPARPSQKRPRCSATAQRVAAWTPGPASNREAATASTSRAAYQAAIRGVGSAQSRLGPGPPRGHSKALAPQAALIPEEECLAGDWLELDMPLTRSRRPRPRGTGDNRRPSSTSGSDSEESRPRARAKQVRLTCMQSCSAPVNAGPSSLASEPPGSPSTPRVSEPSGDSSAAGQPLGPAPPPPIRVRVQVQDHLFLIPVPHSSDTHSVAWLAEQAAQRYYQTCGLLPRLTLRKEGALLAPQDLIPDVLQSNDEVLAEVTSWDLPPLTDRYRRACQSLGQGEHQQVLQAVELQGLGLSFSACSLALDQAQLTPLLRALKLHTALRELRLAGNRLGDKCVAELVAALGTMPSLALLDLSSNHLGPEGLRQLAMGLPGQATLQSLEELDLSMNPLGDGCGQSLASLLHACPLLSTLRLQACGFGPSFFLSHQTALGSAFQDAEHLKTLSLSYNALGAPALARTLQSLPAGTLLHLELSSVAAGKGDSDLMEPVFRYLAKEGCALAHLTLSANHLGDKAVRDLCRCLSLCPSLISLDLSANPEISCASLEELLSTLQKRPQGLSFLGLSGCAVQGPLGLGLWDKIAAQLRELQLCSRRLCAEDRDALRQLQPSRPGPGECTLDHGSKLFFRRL

Turning to B1, the binding result in test [1] is listed as “binds”.

Take B2: the binding result with GST-FIGNL1-dNLS is “binds”.

For B3, the binding result with GST-FIGNL1-dNLS is given as “binds”.
